Measurements as given in patent US20160200789A1, “IL4 CONJUGATED TO ANTIBODIES AGAINST EXTRACELLULAR MATRIX COMPONENTS” (PHILOGEN S.P.A., priority 2013, published 2016).

Legend:
[1] = test system: CHS-induced ear inflammation in K14-VEGF-A mice; assay: Contact hypersensitivity-induced ear inflammation in K14-VEGF-A mice; type: in vivo, mouse; conditions: day 15
Excerpt: A delayed-type hypersensitivity reaction was induced in the ear skin of female FVB mice that overexpress VEGF-A in the epidermis under control of the human keratin 14 promoter as previously described (Detmar et al., 1998; Kunstfeld et al., 2004; Xia et al., 2003). Heterozygous VEGF-A transgenic mice with no pre-existing inflammatory lesions were sensitized by topical application of a 2% oxazolone (4-ethoxymethylene-2-phenyl-2-oxazoline-5-one; Sigma) solution in acetone/olive oil (4:1 vol/vol) to the shaved abdomen (50 μl) and each paw (5 μl). Five days after sensitization, the ears were challenged by topical application of 20 μl of a 1% oxazolone solution. Therapy was started on day 7 and repeated at day 9, 11 and 13. […] Ear thickness was measured every other day and at day 15, mice were sacrificed and ear draining lymph nodes were weighted. The timeline for this experiment is illustrated in FIG. 13A. Each treatment event is indicated by an arrow.

[2] = test system: imiquimod (IMQ)-induced ear inflammation in C57BL/6 mice; assay: IMQ-induced inflammation model of psoriasis; type: in vivo, mouse; conditions: day 13
Experimental: C57BL/6 mice (Charles River, Germany) were treated on each side of each ear with 5 mg Aldara cream (containing 0.25 mg Imiquimod). The treatment schedule is illustrated in FIG. 11A. The Aldara cream was applied every day for 5 days (on day 1, 2, 3, 4 5 and […]: each application is illustrated by an asterisk in FIG. 11A). Ear thickness was measured with a caliper before the application of the cream. […] Treatment was repeated on day 9 and 11 (each treatment event is illustrated by an arrow in FIG. 11A).

[3] = target: T1, TNF (Homo sapiens, UniProt P01375); assay: Inhibition of TNF-mediated killing of LM fibroblasts; type: cell-based, mouse
T1 construct: host or cells: LM fibroblasts (mouse) as indicator cells
T1 sequence (P01375 77-233 limits assumed, species assumed): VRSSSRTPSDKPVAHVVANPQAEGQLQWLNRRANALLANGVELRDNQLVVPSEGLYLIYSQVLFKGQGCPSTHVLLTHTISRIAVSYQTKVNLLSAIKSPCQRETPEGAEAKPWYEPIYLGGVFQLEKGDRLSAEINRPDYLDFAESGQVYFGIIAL
Excerpt: The murine fusion protein muTNFR-Fc (extracellular part of the murine p75-TNF receptor appended at the N-terminus of a murine IgG1 Fc portion, containing the hinge region) was expressed by stable transfection in CHO cells, according to the supplier's protocol. The fusion protein was purified from the culture supernatant by protein A chromatography, yielding a preparation which was pure in SDS-PAGE analysis and size exclusion chromatography (see FIGS. 2A and B). The biological activity of muTNFR-Fc was tested by inhibition of TNF-mediated killing of LM fibroblasts (see FIG. 2C). TNF inhibitors such as Enbrel™ and Humeira™ represent the standard of care in rheumatoid arthritis patients. muTNFR-Fc is a murine version of a TNF inhibitor for use in mouse models of the disease.

B1: muTNFR-Fc: extracellular part of the murine p75-TNF receptor appended at the N-terminus of a murine IgG1 Fc portion; murine version of Enbrel (protein)
chain: VPAQVVLTPYKPEPGYECQISQEYYDRKAQMCCAKCPPGQYVKHFCNKTSDTVCADCEASMYTQVWNQFRTCLSCSSSCTTDQVEIRACTKQQNRVCACEAGRYCALKTHSGSCRQCMRLSKCGPGFGVASSRAPNGNVLCKACAPGTFSDTTSSTDVCRPHRICSILAIPGNASTDAVCAPESPTLSAIPRTLYVSQPEPTRSQPLDQEPGPSQTPSILTSLGSTPIIEQSTKGGVPRDCGCKPCICTVPEVSSVFIFPPKPKDVLTITLTPKVTCVVVDISKDDPEVQFSWFVDDVEVHTAQTKPREEQFNSTFRSVSELPIMHQDWLNGKEFKCRVNSAAFPAPIEKTISKTKGRPKAPQVYTIPPPKEQMAKDKVSLTCMITDFFPEDITVEWQWNGQPAENYKNTQPIMDTDGSYFVYSKLNVQKSNWEAGNTFTCSVLHEGLHNHHTEKSLSHSPGK
- ear draining lymph nodes (weight) [1]: smaller
- ear draining lymph nodes (weight) [2]: smaller
- inhibition of TNF induced killing of mouse fibroblasts [3]: inhibits TNF induced killing of mouse fibroblasts
